Results taken from paper PMC5299624.

What was measured:
Test in all cases: ITC
[1] = molecular target: human NaV1.5 CTD (1773-1940) Y1795H (human) (UniProt Q14524)
[2] = molecular target: human NaV1.5 CTD (1773-1940) Q1909R (human) (UniProt Q14524)
[3] = molecular target: human NaV1.5 CTD (1773-1940) L1917K (human) (UniProt Q14524)
[4] = molecular target: human NaV1.5 CTD (1773-1940) R1913H (human) (UniProt Q14524)
[5] = molecular target: human NaV1.2 CTD (1777-1937) R1918H (human) (UniProt Q99250)
[6] = molecular target: human NaV1.6 C-terminal domain (CTD), amino acids 1769-1926, wild type (human) (UniProt Q9UQD0)
[7] = molecular target: human NaV1.5 CTD (1773-1940) Y1795C (human) (UniProt Q14524)
[8] = molecular target: human NaV1.2 CTD (1777-1937) H1853R (human) (UniProt Q99250)
[9] = molecular target: human NaV1.2 C-terminal domain (CTD), amino acids 1777-1937, wild type (human) (UniProt Q99250)
[10] = molecular target: human NaV1.5 CTD (1773-1940) D1790G (human) (UniProt Q14524)
[11] = molecular target: human NaV1.5 C-terminal domain (CTD), amino acids 1773-1940, wild type (human) (UniProt Q14524)

dH [5]: -7.5 kcal/mol
dH [6]: -17.5 kcal/mol
dH [8]: -8.3 kcal/mol
dH [9]: -4.54 kcal/mol
stoichiometry N [9]: 1.02
Substance: calmodulin (CaM) (from UniProt P0DP23 1-149) (natural protein)
dH [1]: -10.2 kcal/mol
stoichiometry N [1]: 0.76
dH [2]: -14.9 kcal/mol
dH [3]: -9.8 kcal/mol
stoichiometry N [3]: 0.98
stoichiometry N [4]: 0.73
dH [7]: -7.43 kcal/mol
stoichiometry N [7]: 0.92
dH [10]: -10.5 kcal/mol
stoichiometry N [10]: 0.25
dH [11]: -10.5 kcal/mol
